# In patent EP4786492A1:
# Numbering of substitutions follows the chain as printed. Values joined by “and” are separate entries in the source; they are usually repeats but may differ in a detail not shown here. Identical values can stand only once.
# B1: BI3 (antibody, human IgG1, kappa, V domains shown)
# VH: QVQLVQSGAEVKKPGASVKVSCKASGYTFTSYYVHWVRQAPGQGLEWMVIINPGGGTTSYAQKFLGRVTMTRDTSTNTVYMELKSLRSEDTAVYYCARGEAVTGNYFYYGMDVWGQGTTVTVSS
# VL: DIQMTQSPSAMSASVGDRVTITCRASQGISNYLVWFQQKPGKAPKRLIYAVSSLYSGVPSRFSGSGSGTEFTLTISSLQPEDFATYYCLQHDSYPYTFGQGTKLEIKR
# B2: mab007 scFv-hFc (Fc fusion, not shown: small tags and cut ends; a dimerising Fc or GST)
# scFv (part 1 of 2): DVQITQSPSYLAASPGETITINCRASTSISKYLAWYQERPGKTNKLLIYSGSTLQSGIPSRFRGSGSGTDFTLTISSLEPEDFAMYYCQQHHVYPYTFGGGTKLEIK
# scFv (part 2 of 2): QVQLQQPGAELVRPGTSVKLSCKASGYTFTSYWMHWVKQRPGQGLEWIGVIDPSDSLANYNQEFKGKATLTVDTSSSTAYMQLSSLTSEDSAVYYCARDSTVVAPMDYWGQGTSVTVSS
# B3: mab008 scFv-hFc (Fc fusion, not shown: small tags and cut ends; a dimerising Fc or GST)
# scFv (part 1 of 2): DIVMTQSQKFMSTSVGDRVSITCKASQNVGTAVAWYQQKPGQSPKLLIFSASIRYTGVPDRFTGSGSGTDFTLTISNMQSEDLADYFCQQYSSSPYTFGGGTKLEIK
# scFv (part 2 of 2): EVQLQQSGPVLVKPGASVKMSCKASGYTFTDYYMNWVKRSHGKSLEWIGIINPYNGGTSYNQKFRGKATLTVDKSSNTAYMELNSLTSEDSAVYYCSRYDYDYDVEGAMDYWGQGTSVTVSS
# B4: mab006 scFv-hFc (Fc fusion, not shown: small tags and cut ends; a dimerising Fc or GST)
# scFv (part 1 of 2): B2 scFv (part 1 of 2) with S26T, T27K, R39K, Y49F, V93E
# scFv (part 2 of 2): B2 scFv (part 2 of 2) with K38R
# Assays:
# [1] = molecular target: human DLL3 protein expressed on CHO-K1 recombinant cells (human DLL3 extracellular segment fused to EpCAM transmembrane and intracellular regions) (human) (UniProt Q9NYJ7); assay: FACS, CHO-K1 hDLL3 cells, 0.032 nM antibody
# [2] = molecular target: human DLL1 protein (Acro, Cat. No. DL1-H52H8) (human) (UniProt O00548); assay: ELISA, coated hDLL1; maximum over 0.1, 1, 10, 100 nM antibody
# [3] = molecular target: human DLL3 protein expressed on CHO-K1 recombinant cells (human DLL3 extracellular segment fused to EpCAM transmembrane and intracellular regions) (human) (UniProt Q9NYJ7); assay: FACS, CHO-K1 hDLL3 cells, 100 nM antibody
# [4] = molecular target: human DLL3 protein expressed on CHO-K1 recombinant cells (human DLL3 extracellular segment fused to EpCAM transmembrane and intracellular regions) (human) (UniProt Q9NYJ7); assay: FACS, CHO-K1 hDLL3 cells, 0.0064 nM antibody
# [5] = molecular target: DLL3 endogenously expressed on NCI-H82 cells (UniProt Q9NYJ7); assay: FACS on NCI-H82 cells; antibody 0.0064 nM
# [6] = molecular target: human DLL4 protein (Acro, Cat. No. DL4-H5227) (human) (UniProt Q9NR61); assay: ELISA, coated hDLL4; maximum over 0.1, 1, 10, 100 nM antibody
# [7] = molecular target: human DLL3 protein expressed on CHO-K1 recombinant cells (human DLL3 extracellular segment fused to EpCAM transmembrane and intracellular regions) (human) (UniProt Q9NYJ7); assay: FACS, CHO-K1 hDLL3 cells, 0.00128 nM antibody
# [8] = molecular target: DLL3 endogenously expressed on NCI-H82 cells (UniProt Q9NYJ7); assay: FACS on NCI-H82 cells; antibody 4 nM
# [9] = molecular target: DLL3 endogenously expressed on NCI-H82 cells (UniProt Q9NYJ7); assay: FACS on NCI-H82 cells; antibody 0.032 nM
# [10] = molecular target: human DLL1 protein (human) (UniProt O00548); assay: ELISA, maximum over 0.1-100 nM
# [11] = molecular target: human DLL4 protein (human) (UniProt Q9NR61); assay: ELISA, maximum over 0.1-100 nM
# [12] = molecular target: human delta-like ligand 3 (DLL3) on SHP77 cells (human) (UniProt Q9NYJ7); assay: FACS on SHP77 cells
# [13] = molecular target: human DLL3 protein expressed on CHO-K1 recombinant cells (human DLL3 extracellular segment fused to EpCAM transmembrane and intracellular regions) (human) (UniProt Q9NYJ7); assay: FACS, CHO-K1 hDLL3 cells, 4 nM antibody
# [14] = molecular target: DLL3 endogenously expressed on NCI-H82 cells (UniProt Q9NYJ7); assay: FACS on NCI-H82 cells; antibody 0.8 nM
# [15] = molecular target: DLL3 endogenously expressed on NCI-H82 cells (UniProt Q9NYJ7); assay: FACS on NCI-H82 cells; antibody 0.16 nM
# [16] = molecular target: DLL3 endogenously expressed on NCI-H82 cells (UniProt Q9NYJ7); assay: FACS on NCI-H82 cells; antibody 20 nM
# [17] = molecular target: DLL3 endogenously expressed on NCI-H82 cells (UniProt Q9NYJ7); assay: FACS on NCI-H82 cells; antibody 0.00128 nM
# [18] = molecular target: human DLL3 protein expressed on CHO-K1 recombinant cells (human DLL3 extracellular segment fused to EpCAM transmembrane and intracellular regions) (human) (UniProt Q9NYJ7); assay: FACS, CHO-K1 hDLL3 cells, 20 nM antibody
# [19] = molecular target: human DLL3 protein expressed on CHO-K1 recombinant cells (human DLL3 extracellular segment fused to EpCAM transmembrane and intracellular regions) (human) (UniProt Q9NYJ7); assay: FACS, CHO-K1 hDLL3 cells, 0.16 nM antibody
# [20] = molecular target: human DLL3 protein expressed on CHO-K1 recombinant cells (human DLL3 extracellular segment fused to EpCAM transmembrane and intracellular regions) (human) (UniProt Q9NYJ7); assay: FACS, CHO-K1 hDLL3 cells, 0.8 nM antibody
# [21] = molecular target: DLL3 endogenously expressed on NCI-H82 cells (UniProt Q9NYJ7); assay: FACS on NCI-H82 cells; antibody 100 nM
# [22] = molecular target: human DLL3 endogenously expressed on SHP77 and NCI-H82 cells (human) (UniProt Q9NYJ7); assay: FACS SHP77 cells, 100 nM
# [23] = molecular target: human DLL3 endogenously expressed on SHP77 and NCI-H82 cells (human) (UniProt Q9NYJ7); assay: FACS SHP77 cells, 0.00128 nM
# [24] = molecular target: human DLL3 endogenously expressed on SHP77 and NCI-H82 cells (human) (UniProt Q9NYJ7); assay: FACS SHP77 cells, 4 nM
# [25] = molecular target: human DLL3 endogenously expressed on SHP77 and NCI-H82 cells (human) (UniProt Q9NYJ7); assay: FACS SHP77 cells, 20 nM
# [26] = molecular target: human DLL3 endogenously expressed on SHP77 and NCI-H82 cells (human) (UniProt Q9NYJ7); assay: FACS SHP77 cells, 0.032 nM
# [27] = molecular target: human DLL3 endogenously expressed on SHP77 and NCI-H82 cells (human) (UniProt Q9NYJ7); assay: FACS SHP77 cells, 0.16 nM
# [28] = molecular target: human DLL3 endogenously expressed on SHP77 and NCI-H82 cells (human) (UniProt Q9NYJ7); assay: FACS SHP77 cells, 0.8 nM
# [29] = molecular target: human DLL3 endogenously expressed on SHP77 and NCI-H82 cells (human) (UniProt Q9NYJ7); assay: FACS SHP77 cells, 0.0064 nM
# Chain of human delta-like ligand 3 (DLL3) on SHP77 cells (human) (Q9NYJ7 27-618, stated change not applied): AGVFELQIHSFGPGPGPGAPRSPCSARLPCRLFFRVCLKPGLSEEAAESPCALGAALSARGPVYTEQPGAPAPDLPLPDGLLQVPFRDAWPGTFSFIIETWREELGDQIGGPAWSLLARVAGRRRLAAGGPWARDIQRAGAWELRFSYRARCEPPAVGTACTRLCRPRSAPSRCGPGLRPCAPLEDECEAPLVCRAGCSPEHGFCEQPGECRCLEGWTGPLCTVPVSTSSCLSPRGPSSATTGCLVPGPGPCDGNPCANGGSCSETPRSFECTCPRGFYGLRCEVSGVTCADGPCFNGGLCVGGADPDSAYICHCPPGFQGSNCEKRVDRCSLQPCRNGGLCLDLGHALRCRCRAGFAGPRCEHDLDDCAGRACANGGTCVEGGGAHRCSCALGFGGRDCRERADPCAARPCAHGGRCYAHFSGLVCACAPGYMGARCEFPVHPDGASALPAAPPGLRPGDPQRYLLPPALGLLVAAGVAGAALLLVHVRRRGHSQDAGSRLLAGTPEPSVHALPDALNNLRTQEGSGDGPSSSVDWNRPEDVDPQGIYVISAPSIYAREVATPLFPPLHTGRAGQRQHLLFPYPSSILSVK
# Chain of human DLL3 endogenously expressed on SHP77 and NCI-H82 cells (human) (Q9NYJ7 27-618): as the sequence (Q9NYJ7 27-618, stated change not applied) above
# Chain of DLL3 endogenously expressed on NCI-H82 cells (Q9NYJ7 27-618): as the sequence (Q9NYJ7 27-618, stated change not applied) above
# Chain of human DLL3 protein expressed on CHO-K1 recombinant cells (human DLL3 extracellular segment fused to EpCAM transmembrane and intracellular regions) (human) (Q9NYJ7 other isoform, or with tags, fused parts or gaps limits assumed): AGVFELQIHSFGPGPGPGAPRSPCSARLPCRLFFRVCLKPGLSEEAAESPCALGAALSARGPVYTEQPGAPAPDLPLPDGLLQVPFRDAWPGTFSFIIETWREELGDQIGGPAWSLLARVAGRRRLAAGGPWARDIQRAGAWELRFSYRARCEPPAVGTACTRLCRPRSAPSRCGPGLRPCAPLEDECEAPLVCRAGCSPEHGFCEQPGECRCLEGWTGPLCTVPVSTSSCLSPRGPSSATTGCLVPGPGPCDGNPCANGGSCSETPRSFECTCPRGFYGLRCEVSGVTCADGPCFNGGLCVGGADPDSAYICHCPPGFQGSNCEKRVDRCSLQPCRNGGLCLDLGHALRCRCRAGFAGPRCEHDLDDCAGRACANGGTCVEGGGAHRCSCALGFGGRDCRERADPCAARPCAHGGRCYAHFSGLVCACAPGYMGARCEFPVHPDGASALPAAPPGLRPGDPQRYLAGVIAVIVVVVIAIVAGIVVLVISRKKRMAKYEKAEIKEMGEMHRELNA
# Chain of human DLL4 protein (human) (Q9NR61 27-524 limits assumed): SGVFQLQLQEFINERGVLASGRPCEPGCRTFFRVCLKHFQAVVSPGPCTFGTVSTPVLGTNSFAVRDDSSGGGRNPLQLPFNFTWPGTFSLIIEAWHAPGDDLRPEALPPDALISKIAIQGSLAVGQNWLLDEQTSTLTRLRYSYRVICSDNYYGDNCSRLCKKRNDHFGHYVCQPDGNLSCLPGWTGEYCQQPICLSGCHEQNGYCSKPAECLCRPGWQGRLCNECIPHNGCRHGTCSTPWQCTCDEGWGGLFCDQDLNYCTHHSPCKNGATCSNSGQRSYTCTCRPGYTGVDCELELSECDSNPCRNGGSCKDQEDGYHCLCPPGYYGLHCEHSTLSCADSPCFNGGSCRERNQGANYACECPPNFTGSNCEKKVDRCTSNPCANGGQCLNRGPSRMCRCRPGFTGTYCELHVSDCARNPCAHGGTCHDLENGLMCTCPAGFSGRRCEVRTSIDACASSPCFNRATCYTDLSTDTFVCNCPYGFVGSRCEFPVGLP
# Chain of human DLL1 protein (human) (O00548 18-540 limits assumed): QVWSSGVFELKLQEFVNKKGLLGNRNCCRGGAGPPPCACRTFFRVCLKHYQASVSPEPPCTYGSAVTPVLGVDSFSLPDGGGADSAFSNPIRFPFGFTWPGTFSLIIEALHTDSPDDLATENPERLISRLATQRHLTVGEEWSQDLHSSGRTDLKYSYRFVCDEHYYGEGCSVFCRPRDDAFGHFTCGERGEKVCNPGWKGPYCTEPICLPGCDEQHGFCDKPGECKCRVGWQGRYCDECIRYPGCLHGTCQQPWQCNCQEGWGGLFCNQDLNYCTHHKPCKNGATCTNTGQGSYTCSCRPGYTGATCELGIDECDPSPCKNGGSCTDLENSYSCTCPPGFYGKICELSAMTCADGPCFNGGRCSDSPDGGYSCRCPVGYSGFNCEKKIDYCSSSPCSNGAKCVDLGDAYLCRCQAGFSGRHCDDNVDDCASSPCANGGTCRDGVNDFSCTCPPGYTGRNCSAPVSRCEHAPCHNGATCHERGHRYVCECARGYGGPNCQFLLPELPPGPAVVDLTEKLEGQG
# Chain of human DLL4 protein (Acro, Cat. No. DL4-H5227) (human) (Q9NR61 27-524 limits assumed): as the sequence (Q9NR61 27-524 limits assumed) above
# Chain of human DLL1 protein (Acro, Cat. No. DL1-H52H8) (human) (O00548 18-540 limits assumed): as the sequence (O00548 18-540 limits assumed) above
binder,measurement,setting,value
B1,MFI,[1],924 MFI
same,Emax of OD450 nm binding value,[2],0.14 OD450 nm
same,MFI,[3],13200 MFI
same,MFI,[4],452 MFI
same,MFI,[5],121
same,Emax of OD450 nm binding value,[6],0.06 OD450 nm
same,MFI,[7],310 MFI
same,MFI,[8],795
same,MFI,[9],155
same,Emax of OD450 nm binding value,[10],0.05 OD450 and 0.07 OD450
same,Emax of OD450 nm binding value,[11],0.05 OD450 and 0.04 OD450
same,MFI at 0.00128 nM,[12],101 MFI
same,MFI at 0.0064 nM,[12],105 MFI
same,MFI at 0.032 nM,[12],110 MFI
same,MFI at 0.16 nM,[12],148 MFI
same,MFI at 0.8 nM,[12],252 MFI
same,MFI at 4 nM,[12],498 MFI
same,MFI at 20 nM,[12],807 MFI
same,MFI at 100 nM,[12],967 MFI
same,MFI,[13],12600 MFI
same,MFI,[14],518
same,MFI,[15],256
same,MFI,[16],882
same,MFI,[17],112
same,MFI,[18],13400 MFI
same,MFI,[19],2660 MFI
same,MFI,[20],7770 MFI
same,MFI,[21],1010
B2,MFI,[22],521 MFI
same,MFI,[23],103 MFI
same,MFI,[24],563 MFI
same,MFI,[25],634 MFI
same,MFI,[26],227 MFI
same,MFI,[27],406 MFI
same,MFI,[28],525 MFI
same,MFI,[29],135 MFI
B3,MFI,[22],412 MFI
same,MFI,[23],82 MFI
same,MFI,[24],365 MFI
same,MFI,[25],468 MFI
same,MFI,[26],98 MFI
same,MFI,[27],130 MFI
same,MFI,[28],208 MFI
same,MFI,[29],90 MFI
B4,MFI,[22],876 MFI
same,MFI,[23],112 MFI
same,MFI,[24],664 MFI
same,MFI,[25],718 MFI
same,MFI,[26],267 MFI
same,MFI,[27],497 MFI
same,MFI,[28],643 MFI
same,MFI,[29],152 MFI
